Assay [1] addresses hCLEC12A-His fusion protein (human) (UniProt Q5QGZ9). The experiment in a line: SPR (Biacore) 37 C.
The target is the same in assay [2]. The experiment in a line: SPR (Biacore) 37 C, mean of 4. In general terms: Surface plasmon resonance follows binding to a sensor surface in real time, without labels.
The target is the same in assay [3]. The experiment in a line: SPR screening, semi-purified protein.
Assay [4] concerns the target human CLEC12A expressed on cells (human) (UniProt Q5QGZ9). Nature of the assay: flow cytometry, hCLEC12A+Ba/F3 cells.

Where “and” joins values, the source holds several entries; their conditions need not be identical. Identical values can stand only once.

By Kd is commonly meant a measure of binding affinity in units of concentration. A high value points to weaker binding. One may read the koff as the rate constant with which the complex falls apart. Broadly, the kon is a measure of how fast the partners come together. Read a low kon as slow association. By EC50 is commonly meant the midpoint of the concentration-response curve. A lower EC50 goes with an effect from little substance.

Sequence of hCLEC12A-His fusion protein (human) (Q5QGZ9 65-265 limits assumed): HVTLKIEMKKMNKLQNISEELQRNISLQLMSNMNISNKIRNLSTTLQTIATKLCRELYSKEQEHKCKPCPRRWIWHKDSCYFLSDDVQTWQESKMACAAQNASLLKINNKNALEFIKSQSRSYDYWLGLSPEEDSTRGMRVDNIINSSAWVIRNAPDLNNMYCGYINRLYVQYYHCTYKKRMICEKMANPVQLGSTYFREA
Sequence of human CLEC12A expressed on cells (human) (Q5QGZ9 whole entry): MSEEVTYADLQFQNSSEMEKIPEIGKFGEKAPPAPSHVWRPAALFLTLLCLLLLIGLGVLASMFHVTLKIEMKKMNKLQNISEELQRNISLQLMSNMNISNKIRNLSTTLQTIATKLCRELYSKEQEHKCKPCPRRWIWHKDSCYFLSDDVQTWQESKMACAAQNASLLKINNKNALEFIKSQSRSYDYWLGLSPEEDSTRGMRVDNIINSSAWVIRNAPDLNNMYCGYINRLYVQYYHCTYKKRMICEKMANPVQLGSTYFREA

B1: F3′-1295 (bispecific antibody, part only; not given: Fc and unrelated binding arm, not shown: another chain or arm of the molecule; a dimerising Fc or GST)
scFv: QLQLQESGPGLVKPSETLSLTCTVSGFSLTNYGLHWIRQPPGKCLEWIGVIWSGGKTDYNPSLKSRVTISKDTSKNQFSLKLSSVQAADTAVYYCAKYDYDDSLDYWGQGTLVTVSSGGGGSGGGGSGGGGSGGGGSDIQMTQSPSSLSASVGDRVTITCHASQNINFWLSWYQQKPGKIPKLLIYEASNLHTGVPSRFSGSGSGTRFTLTISSLQPEDIATYYCQQSHSYPLTFGCGTKLEIK
For the molecule B1, the Kd in assay [1] was 1.43 nM and 1.42 nM and 1.44 nM. Also, in assay [2], the Kd was 1.43 nM, the off-rate (koff) stood at 0.000594 s⁻¹ and the kon was 415000 M⁻¹ s⁻¹. In assay [3], this molecule came in with a dissociation constant Kd of 2.94 nM, a koff of 0.00153 s⁻¹ and a kon of 520000 M⁻¹ s⁻¹. In assay [4], the EC50 is 26.1 nM and the Max MFI came out at 48000 MFI.
